Bridge positions count the residues as written; N and C are the ends. Square brackets hold non-standard residues; d marks the D form. Ends that are not written are not given here. Aib = CC(C)(N)C(=O)O
T1: human GIP receptor (human, UniProt P48546 22-466)
T1 sequence (looked up): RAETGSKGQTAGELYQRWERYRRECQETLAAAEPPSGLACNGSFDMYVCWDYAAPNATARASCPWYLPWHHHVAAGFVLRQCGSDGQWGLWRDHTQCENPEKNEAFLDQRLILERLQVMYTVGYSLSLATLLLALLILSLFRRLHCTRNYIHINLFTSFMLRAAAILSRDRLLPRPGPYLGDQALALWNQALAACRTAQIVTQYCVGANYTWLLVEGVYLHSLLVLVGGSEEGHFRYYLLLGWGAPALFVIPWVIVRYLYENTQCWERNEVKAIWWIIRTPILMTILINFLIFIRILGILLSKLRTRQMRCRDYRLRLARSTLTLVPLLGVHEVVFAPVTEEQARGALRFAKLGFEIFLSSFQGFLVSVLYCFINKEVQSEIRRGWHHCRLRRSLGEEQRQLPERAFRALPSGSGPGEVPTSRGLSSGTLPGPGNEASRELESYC


Columns and labels:
Assay in all cases: cell-based or functional assay
[1] = target: human GCG receptor (human, UniProt P47871 26-477)
Chain of human GCG receptor (P47871 26-477): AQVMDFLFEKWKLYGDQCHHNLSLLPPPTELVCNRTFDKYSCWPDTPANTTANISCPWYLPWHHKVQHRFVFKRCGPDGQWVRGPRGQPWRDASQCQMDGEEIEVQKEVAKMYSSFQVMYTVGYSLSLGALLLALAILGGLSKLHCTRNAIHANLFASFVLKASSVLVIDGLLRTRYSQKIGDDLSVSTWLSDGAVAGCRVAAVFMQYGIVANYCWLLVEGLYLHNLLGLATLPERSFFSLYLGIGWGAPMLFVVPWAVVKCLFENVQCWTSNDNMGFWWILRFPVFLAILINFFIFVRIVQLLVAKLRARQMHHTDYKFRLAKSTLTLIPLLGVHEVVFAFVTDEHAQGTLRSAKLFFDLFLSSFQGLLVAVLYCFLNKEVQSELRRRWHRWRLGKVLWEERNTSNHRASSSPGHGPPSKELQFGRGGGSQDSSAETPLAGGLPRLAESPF

[2] = target: human GLP-1 receptor (human, UniProt P43220 24-463)
[3] = target: T1, human GIP receptor

Binder	In vitro activity compared to native-type peptide (%), vs Glucagon [1] [%]	In vitro activity compared to native-type peptide (%), vs GLP-1 [2] [%]	In vitro activity compared to native-type peptide (%), vs GIP [3] [%]
H[Aib]QGTFTSDYSKYLDERACQDFVQWLLDQGGPSSGAPPPS [triple agonist of SEQ ID NO: 27]	0.8	83.1	0.9
H[Aib]QGTFTSDYSKYLDEKRAQEFVCWLLAQKGKKNDWKHNIT [triple agonist of SEQ ID NO: 28]	1.6	17.2	< 0.1
H[Aib]QGTFTSDCSKYLDSRAAQDFVQWLLDGGPSSGAPPPS [triple agonist of SEQ ID NO: 26]	0.2	64.5	< 0.1
Y[Aib]QGTFTSDYSKYLDECRAKEFVQWLKNGGPSSGAPPPS (bridge 16-20) [triple agonist of SEQ ID NO: 24]	9.3	41.2	< 0.1
H[Aib]QGTFTSDYSKYLDEKAQKEFVQWLLDTC (bridge 16-20) [triple agonist of SEQ ID NO: 30]	0.7	142	0.8
H[Aib]QGTFTSDYSKYLDEKACKEFVQWLLAQ (bridge 16-20) [triple agonist of SEQ ID NO: 31]	2.2	135	2.4
H[Aib]QGTFTSDYSKYLDEKACKDFVQWLLDGGPSSGAPPPS (bridge 16-20) [triple agonist of SEQ ID NO: 32]	1.7	151	8.8
H[Aib]QGTFTSDYSIAMDEIHQKDFVNWLLAQKC (bridge 16-20) [triple agonist of SEQ ID NO: 33]	< 0.1	24.5	10.4
H[Aib]QGTFTSDCSKYLDERAAQDFVQWLLDGGPSSGAPPPS [triple agonist of SEQ ID NO: 25]	0.1	82.6	< 0.1
H[Aib]QGTFTSDYSKYLDEKAAKEFVQWLLNTC (bridge 16-20) [triple agonist of SEQ ID NO: 29]	6	38.5	< 0.1
